Assay results: patent US11692025 (UNIVERSITY COURT OF THE UNIVERSITY OF ABERDEEN, dated 2023)
Positions count from the first letter of the chain named.

Columns and labels:
[1] = target: T1, human serum albumin (human, UniProt P02768 25-609); experiment: screening of the unselected immunized library on HSA
T1 construct: also called HSA; HAS

[2] = target: T1, human serum albumin; experiment: phage display panning on HSA and screening
[3] = target: T2, mouse serum albumin (mouse, UniProt P07724 25-608); experiment: BIAcore, pH 7.4, monomeric 6xHis-tagged VNAR
T2 construct: also called MSA
T2 sequence (P07724 25-608 limits assumed): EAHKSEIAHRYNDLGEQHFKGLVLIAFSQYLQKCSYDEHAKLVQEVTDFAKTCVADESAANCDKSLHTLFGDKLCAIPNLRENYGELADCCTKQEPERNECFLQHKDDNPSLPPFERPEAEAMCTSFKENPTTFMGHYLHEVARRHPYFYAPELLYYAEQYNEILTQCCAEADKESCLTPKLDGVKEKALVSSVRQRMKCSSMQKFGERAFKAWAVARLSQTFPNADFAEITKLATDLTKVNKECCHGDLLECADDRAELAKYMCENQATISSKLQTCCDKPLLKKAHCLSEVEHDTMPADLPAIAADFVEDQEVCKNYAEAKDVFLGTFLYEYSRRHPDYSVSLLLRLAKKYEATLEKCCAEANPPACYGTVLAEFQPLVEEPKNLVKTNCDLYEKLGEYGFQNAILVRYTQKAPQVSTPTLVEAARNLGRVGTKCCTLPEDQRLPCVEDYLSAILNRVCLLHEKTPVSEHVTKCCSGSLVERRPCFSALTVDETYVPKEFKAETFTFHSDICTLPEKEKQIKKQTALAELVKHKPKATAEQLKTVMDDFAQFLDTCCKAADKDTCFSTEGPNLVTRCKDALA

[4] = target: T1, human serum albumin; experiment: BIAcore, pH 7.4, monomeric 6xHis-tagged VNAR
[5] = target: T3, rat serum albumin (rat, UniProt P02770 25-608); experiment: BIAcore, pH 7.4, monomeric 6xHis-tagged VNAR
T3 construct: also called RSA
T3 sequence (P02770 25-608 limits assumed): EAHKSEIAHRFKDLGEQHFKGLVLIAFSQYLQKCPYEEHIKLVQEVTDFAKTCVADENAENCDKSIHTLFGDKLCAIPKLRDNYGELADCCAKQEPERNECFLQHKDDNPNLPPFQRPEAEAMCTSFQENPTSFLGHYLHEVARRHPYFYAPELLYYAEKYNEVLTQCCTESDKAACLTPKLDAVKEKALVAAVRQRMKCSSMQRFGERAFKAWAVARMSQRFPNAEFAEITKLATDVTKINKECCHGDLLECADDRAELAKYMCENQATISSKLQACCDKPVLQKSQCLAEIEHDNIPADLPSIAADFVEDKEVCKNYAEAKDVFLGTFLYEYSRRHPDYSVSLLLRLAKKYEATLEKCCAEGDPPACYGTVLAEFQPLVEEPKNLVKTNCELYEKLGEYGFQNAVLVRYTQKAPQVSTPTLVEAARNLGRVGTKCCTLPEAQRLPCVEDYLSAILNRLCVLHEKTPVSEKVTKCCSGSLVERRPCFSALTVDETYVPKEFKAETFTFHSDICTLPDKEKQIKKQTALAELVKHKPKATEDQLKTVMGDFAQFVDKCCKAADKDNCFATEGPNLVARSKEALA

[6] = target: T2, mouse serum albumin; experiment: BIAcore, pH 6.0, monomeric 6xHis-tagged VNAR
[7] = target: T1, human serum albumin; experiment: BIAcore, pH 6.0, monomeric 6xHis-tagged VNAR
[8] = target: T3, rat serum albumin; experiment: BIAcore, pH 6.0, monomeric 6xHis-tagged VNAR
[9] = target: T1, human serum albumin; experiment: phage and periprep ELISA on HSA; purified 6xHis-tagged VNAR
Protocol: The resultant mutational phage display libraries were rescued and selected twice using Nunc Maxisorp immunotubes. Following each pan, two 96-well plates of individual colonies were picked with a QPix2 XT (Genetix, San Jose, Calif., USA). Binding as monoclonal phage and periprep was evaluated by ELISA. All samples were processed with a Perkin Elmer MiniTrak robotic liquid handling system (Waltham, Mass., USA).

B1: SEQ ID NO 54 (VNAR)
VNAR: ARVDQTPRTATKETGESLTINCVLTDTSYPLYSTYWYRKNPGSSNKEQISISGRYVESVNKGTKSFSLRIKDLTVADSATYICRAYTIHIKLEQHGAGTVLTVN
notes: clone name not tied to this number; one of the 13 entries may be a consensus
**Q.** Does B1 bind [1]?
**A.** binds

B2: SEQ ID NO 60 (VNAR)
VNAR: ASVNQTPRTATKETGESLTINCVLTGTSCSLYSTSWFRKNPGTTDWERISIGGRYVESVNKGAKSFSLRIKDLTVADSATYYCKAEKGRKGSAITSCRRSSYYDGAGTVLTVN
notes: as for B1
**Q.** Does B2 bind [1]?
**A.** binds

B3: SEQ ID NO 58 (VNAR)
VNAR: TRVDQTPRTATKETGESLTINCVLTDTSYPLYSTYWYRKNPGSSNKEQISISGRYVESVNKGTKSFSLRIKDLTVADSATYICRAYTPGREDYGAGTVLTVN
notes: as for B1
**Q.** Does B3 bind [1]?
**A.** binds

B4: SEQ ID NO 33 (VNAR)
VNAR: ARVDQTPRTATKETGESLTINCVLTDTSYPLYSTYWYRKNPGSSNKEQISISGRYVESVNKGTKSFSLRIKDLTVADSATYICRAMGTDSWTGDGAGTVLTVN
notes: clone name not tied to this number
**Q.** Does B4 bind [2]?
**A.** binds

B5: SEQ ID NO 40 (VNAR)
VNAR: B4 VNAR with A1T, Q48R, D89N, V99A
notes: as for B4
**Q.** Does B5 bind [2]?
**A.** binds

B6: SEQ ID NO 63 (VNAR)
VNAR: B4 VNAR with R2S, D4N, S50P, G87D, D89S, S90A, W91G, T92V, G93V
notes: as for B1
**Q.** Does B6 bind [1]?
**A.** binds

B7: SEQ ID NO 48 (VNAR)
VNAR: B4 VNAR with R2S, D4N, G87D, D89S, S90A, W91G, T92V, G93V
notes: as for B4
**Q.** Does B7 bind [2]?
**A.** binds

B8: SEQ ID NO 55 (VNAR)
VNAR: B4 VNAR with S44P, Q48R, T88A, D89N, V99A
notes: as for B1
**Q.** Does B8 bind [1]?
**A.** binds

B9: SEQ ID NO 62 (other)
chain: B4 VNAR with A1I, E16G, M86L, G87S, D89Y, S90M, W91E, T92A
notes: as for B1
**Q.** Does B9 bind [1]?
**A.** binds

B10: SEQ ID NO 59 (VNAR)
VNAR: B4 VNAR with T25A, M86S, G87D, T88I, D89A, S90M, W91G, G93Y, V99A
notes: as for B1
**Q.** Does B10 bind [1]?
**A.** binds

B11: SEQ ID NO 39 (VNAR)
VNAR: B4 VNAR with A1T, Q48R
notes: as for B4
**Q.** Does B11 bind [2]?
**A.** binds

B12: SEQ ID NO 42 (VNAR)
VNAR: B4 VNAR with A1T, S33R, D89N
notes: as for B4
**Q.** Does B12 bind [2]?
**A.** binds

B13: SEQ ID NO 61 (VNAR)
VNAR: B4 VNAR with A79G, A85S, M86I, G87T, D89H, T92S, V99A
notes: as for B1
**Q.** Does B13 bind [1]?
**A.** binds

B14: SEQ ID NO 43 (VNAR)
VNAR: B4 VNAR with A1T, Q48R, V99A
notes: as for B4
**Q.** Does B14 bind [2]?
**A.** binds

B15: SEQ ID NO 56 (VNAR)
VNAR: B4 VNAR with R2S, D4N, T27A, S50P, D89N, S90G
notes: as for B1
**Q.** Does B15 bind [1]?
**A.** binds

B16: SEQ ID NO 44 (VNAR)
VNAR: B4 VNAR with A1T, Q48R, D89N, S90I
notes: as for B4
**Q.** Does B16 bind [2]?
**A.** binds

B17: SEQ ID NO 38 (VNAR)
VNAR: B4 VNAR with A1T, S33R
notes: as for B4
**Q.** Does B17 bind [2]?
**A.** binds

B18: SEQ ID NO 53 (VNAR)
VNAR: B4 VNAR with M86I, G87T, G93S, V99A
notes: as for B1
**Q.** Does B18 bind [1]?
**A.** binds

B19: SEQ ID NO 49 (VNAR)
VNAR: B4 VNAR with R2K
notes: as for B4
**Q.** Does B19 bind [2]?
**A.** binds

B20: SEQ ID NO 50 (VNAR)
VNAR: B4 VNAR with R2S, D4N, Q48R
notes: as for B4
**Q.** Does B20 bind [2]?
**A.** binds

B21: SEQ ID NO 35 (VNAR)
VNAR: B4 VNAR with A1T, D89N, V99A
notes: as for B4
**Q.** Does B21 bind [2]?
**A.** binds

B22: SEQ ID NO 52 (VNAR)
VNAR: IRVDQTPRTATKETGESLTINCVLTGTVCGMYSTSWSRKNPGRADWERISIGGRYVESVNKGAKSFSLRIRDLTVADSATYCCSAESPPICTSQGIAAVTKYYDGAGTVLTVN
notes: as for B1
**Q.** Does B22 bind [1]?
**A.** binds

B23: huE06 v1.1 (VNAR)
VNAR: TRVDQSPSSLSASVGDRVTITCVLTDTSYPLYSTYWYQQKPGSSNKEQISISGRYSESVNKGTKSFTLTISSLQPEDFATYYCRAMGTNIWTGDGAGTKVEIK
notes: Humanized VNAR, tested as monomeric 6xHis-tagged protein; also called humanized E06 v1.1; not shown: 6xHis tag
**Q.** How did the “Fold change from E06” value [3] turn out when B23 was run?
**A.** 59.4 fold

**Q.** What about the Kd [3] of the same binder?
**A.** 49.2 nM

**Q.** What about the koff [3] of the same binder?
**A.** 0.0414 s⁻¹

**Q.** What about the kon [3] of the same binder?
**A.** 841000 M⁻¹ s⁻¹

**Q.** And the “Fold change from E06” value [4]?
**A.** 84.9 fold

**Q.** And the Kd [4]?
**A.** 16 nM

**Q.** What about the koff [4] of the same binder?
**A.** 0.014 s⁻¹

**Q.** What about the kon [4] of the same binder?
**A.** 872000 M⁻¹ s⁻¹

**Q.** And the “Fold change from E06” value [5]?
**A.** 52 fold

**Q.** What about the Kd [5] of the same binder?
**A.** 75.3 nM

**Q.** And the koff [5]?
**A.** 0.0329 s⁻¹

**Q.** What about the kon [5] of the same binder?
**A.** 436000 M⁻¹ s⁻¹

**Q.** And the “Fold change from E06” value [6]?
**A.** 28.3 fold

**Q.** And the Kd [6]?
**A.** 9.28 nM

**Q.** And the koff [6]?
**A.** 0.0318 s⁻¹

**Q.** What about the kon [6] of the same binder?
**A.** 3.43e+06 M⁻¹ s⁻¹

**Q.** What about the “Fold change from E06” value [7] of the same binder?
**A.** 35.6 fold

**Q.** What about the Kd [7] of the same binder?
**A.** 5.07 nM

**Q.** And the koff [7]?
**A.** 0.0184 s⁻¹

**Q.** What about the kon [7] of the same binder?
**A.** 3.62e+06 M⁻¹ s⁻¹

**Q.** And the “Fold change from E06” value [8]?
**A.** 29 fold

**Q.** And the Kd [8]?
**A.** 9.94 nM

**Q.** And the koff [8]?
**A.** 0.031 s⁻¹

**Q.** And the kon [8]?
**A.** 3.12e+06 M⁻¹ s⁻¹

B24: huE06 v1.10 (VNAR)
VNAR: B23 VNAR with Q38R, Q39K, K40N
notes: Humanized VNAR, tested as monomeric 6xHis-tagged protein; also called hE06v1.10; humanized E06 v1.10; not shown: 6xHis tag
**Q.** Which results are given for B24?
**A.** Fold change from E06 [3]: 28.1 fold; Kd [3]: 23.2 nM; koff [3]: 0.00959 s⁻¹; kon [3]: 412000 M⁻¹ s⁻¹; Fold change from E06 [4]: 33.9 fold; Kd [4]: 6.4 nM; koff [4]: 0.00357 s⁻¹; kon [4]: 559000 M⁻¹ s⁻¹; Fold change from E06 [5]: 25.4 fold; Kd [5]: 36.8 nM; koff [5]: 0.0165 s⁻¹; kon [5]: 449000 M⁻¹ s⁻¹; Fold change from E06 [6]: 12.2 fold; Kd [6]: 3.98 nM; koff [6]: 0.0125 s⁻¹; kon [6]: 3.14e+06 M⁻¹ s⁻¹; Fold change from E06 [7]: 12.7 fold; Kd [7]: 1.81 nM; koff [7]: 0.00637 s⁻¹; kon [7]: 3.52e+06 M⁻¹ s⁻¹; Fold change from E06 [8]: 12.2 fold; Kd [8]: 4.17 nM; koff [8]: 0.0152 s⁻¹; kon [8]: 3.65e+06 M⁻¹ s⁻¹

B25: AC9 (VNAR)
VNAR: B23 VNAR with Q38R, Q39K, K40N, F66S
notes: Variant of huE06 v1.10 from error-prone PCR
**Q.** Does B25 bind [9]?
**A.** binds

B26: BC3 (VNAR)
VNAR: B23 VNAR with Q38R, Q39K, K40N, S44N
notes: as for B25
**Q.** Does B26 bind [9]?
**A.** binds

B27: AD4 (VNAR)
VNAR: B23 VNAR with Q38R, Q39K, K40N, I51M, G62S
notes: as for B25
**Q.** Does B27 bind [9]?
**A.** binds

B28: BB10 (VNAR)
VNAR: B23 VNAR with Q38R, Q39K, K40N, I90F
notes: as for B25
**Q.** Does B28 bind [9]?
**A.** binds

B29: AG11 (VNAR)
chain: B23 VNAR with Q38R, Q39K, K40N, I102T
notes: as for B25
**Q.** Does B29 bind [9]?
**A.** binds

B30: BD12 (VNAR)
VNAR: B23 VNAR with Q38R, Q39K, K40N, K64N
notes: as for B25
**Q.** Does B30 bind [9]?
**A.** binds

B31: AH7 (VNAR)
VNAR: B23 VNAR with S6T, Q38R, Q39K, K40N, F66S
notes: as for B25
**Q.** Does B31 bind [9]?
**A.** binds

B32: BA11 (VNAR)
VNAR: B23 VNAR with Q38R, Q39K, K40N, F78S, G87S
notes: as for B25
**Q.** Does B32 bind [9]?
**A.** binds

B33: BB11 (VNAR)
VNAR: B23 VNAR with Q38R, Q39K, K40N, G87A
notes: as for B25
**Q.** Does B33 bind [9]?
**A.** binds

B34: BE4 (VNAR)
VNAR: B23 VNAR with P30S, Q38R, Q39K, K40N
notes: as for B25
**Q.** Does B34 bind [9]?
**A.** binds

B35: SEQ ID NO 57 (VNAR)
VNAR: AKVDQTPRTTTKETGESLTINCVLTETSYGLSSTSWFQKNPGTTDWERMSIGGRYVESVNTGAKSFSLRIKDLTVADSATYYCKAHAGYGVWNRGLQWRGYDQYDGAGTVLTVN
notes: as for B1
**Q.** Does B35 bind [1]?
**A.** binds
